B1: A8 nanobody (anti-FGFR4 sdAb, NaLi-H1 library) (VHH)
VHH: EVQLQASGGGFVQPGGSLRLSCAASGRTYSRDTMGWFRQAPGKEREFVSAISSRHSHTTYYADSVKGRFTISRDNSKNTVYLQMNSLRAEDTATYYCAEWDVFDMHYALPPMWYWGQGTQVTVSS
notes: also called A8 sdAb; not shown: C-terminal Myc/6xHis-tag and an additional cysteine
B2: B1 nanobody (anti-FGFR4 sdAb, NaLi-H1 library) (VHH)
VHH: EVQLQASGGGFVQPGGSLRLSCAASGYTSRSSAMGWFRQAPGKEREFVSAISDLTGYPYYYADSVKGRFTISRDNSKNTVYLQMNSLRAEDTATYYCAAYQDDKWTYGSQHGKYWGQGTQVTVSS
notes: also called B1 sdAb; not shown: C-terminal Myc/6xHis-tag and an additional cysteine
B3: B5 nanobody (anti-FGFR4 sdAb, NaLi-H1 library) (VHH)
VHH: EVQLQASGGGFVQPGGSLRLSCAASGRTSWLTTMGWFRQAPGKEREFVSAISSFSSKQGYYADSVKGRFTISRDNSKNTVYLQMNSLRAEDTATYYCAYASYPRHQGNGRWKDFVEYWGQGTQVTVSS
notes: Recombinant nanobody of about 17 kDa; also called B5 sdAb; not shown: C-terminal Myc/6xHis-tag and an additional cysteine
B4: F8 nanobody (anti-FGFR4 sdAb, Gimli library) (VHH)
VHH: EVQLVESGGGLVQPGGSLRLSCAASGTGYALDDMGWVRQAPGKGLEWVSAISDDESMADYYADSVKGRFTISRDNSKNTVYLQMNSLRAEDTAVYYCASYKEYKYQSGHHYFAYRGQGTLVTVSS
notes: Recombinant nanobody of about 17 kDa; also called F8 sdAb; not shown: C-terminal Myc/6xHis-tag and an additional cysteine

molecular target: T1, Recombinant FGFR4 (G&P Biosciences) (human, UniProt P22455 22-369); assay: SPR (BIAcore T200), single cycle kinetics, FGFR4 amine-immobilised, nanobody as analyte, heterogeneous ligand model, component 2 (KD2)
T1 construct: Bought protein; the SPR method says only 'Recombinant; also called rFGFR4; extracellular FGFR4
T1 sequence: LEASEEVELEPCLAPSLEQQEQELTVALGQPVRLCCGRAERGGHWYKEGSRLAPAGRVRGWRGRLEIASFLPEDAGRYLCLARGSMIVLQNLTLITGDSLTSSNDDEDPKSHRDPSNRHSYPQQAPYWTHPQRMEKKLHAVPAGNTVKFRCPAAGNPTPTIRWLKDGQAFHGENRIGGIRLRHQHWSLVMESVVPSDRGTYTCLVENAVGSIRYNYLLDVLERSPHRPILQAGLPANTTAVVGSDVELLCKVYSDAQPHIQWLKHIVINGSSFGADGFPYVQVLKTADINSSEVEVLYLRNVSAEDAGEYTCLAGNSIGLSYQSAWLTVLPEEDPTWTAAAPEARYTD
Protocol: FIG. 3: Affinity determination of nanobodies to recombinant protein via surface plasmon resonance spectroscopy. Single cycle kinetics analysis was performed on immobilized FGFR4 through covalent amine binding on the dextran based sensor chip. The analytes A8, B1, B5, F8 and mCh were injected in 5 different concentrations followed by a dissociation phase. A final dissociation step was added after the last injection step to determine Koff rates for the KD calculations. The black curves represent the measured data and red curves show the fit analysis (heterogeneous ligand model) performed with the BIAevaluation software.
(§1) Single cycle kinetics analysis was performed with the BIAcore® T200 instrument (GE Healthcare) on CMD200M sensor chips (XanTec bioanalytics GmbH) activated with a mixture of 300 mM NHS (N-hydroxysuccinimide) and 50 mM EDC (N-ethyl-N′-(dimethylaminopropyl) carbodiimide). Recombinant FGFR1, FGFR2, FGFR3 and FGFR4 (G&P Biosciences) were immobilized on the activated biosensors (800 to 12′000 RU; 1 RU=1 pg/mm²) followed by a blocking step with 1M ethanolamine. One flow channel per chip was used as a reference to provide background corrections. The nanobodies were injected at 5 different concentrations followed by a dissociation phase. Koff-rates were determined from a final dissociation step after the last injection. The measurements with FGFR4 were performed for each nanobody on freshly immobilized protein due to strong binding and incomplete dissociation from the surface. Immobilization flow rate was 5 μl/min and binding studies were performed at 30 μl/min. Binding parameters were determined with the heterogeneous ligand model fit of the BIAevaluation software. The black curves represent the measured data and red curves show the performed fit analysis.
(§2) To determine the binding affinity of the nanobodies to FGFR4, we performed surface plasmon resonance (SPR) spectroscopy with recombinant FGFR4. As already mentioned above, FGFR1 and FGFR2 are expressed on Rh4-FR4ko cells and flow cytometry analysis indicated no binding of the nanobodies to the cells. To further confirm FGFR4-specificity, we included also affinity measurements with recombinant FGFR1, FGFR2 and FGFR3. Nanobodies A8, B1, B5, F8, and mCh were injected in five different concentrations on a FGFR coated chip.

Row | Binder | Kd
1 | B1 | 36.8 nM
2 | B2 | 4.6 nM
3 | B3 | 0.000216 nM
4 | B4 | 4.14 nM

molecular target: T2, Recombinant FGFR1 (G&P Biosciences) (UniProt P11362 22-376, limits assumed); assay: SPR, FGFR1 immobilised, nanobody as analyte at five concentrations
T2 construct: Immobilised on the SPR chip
T2 sequence (looked up): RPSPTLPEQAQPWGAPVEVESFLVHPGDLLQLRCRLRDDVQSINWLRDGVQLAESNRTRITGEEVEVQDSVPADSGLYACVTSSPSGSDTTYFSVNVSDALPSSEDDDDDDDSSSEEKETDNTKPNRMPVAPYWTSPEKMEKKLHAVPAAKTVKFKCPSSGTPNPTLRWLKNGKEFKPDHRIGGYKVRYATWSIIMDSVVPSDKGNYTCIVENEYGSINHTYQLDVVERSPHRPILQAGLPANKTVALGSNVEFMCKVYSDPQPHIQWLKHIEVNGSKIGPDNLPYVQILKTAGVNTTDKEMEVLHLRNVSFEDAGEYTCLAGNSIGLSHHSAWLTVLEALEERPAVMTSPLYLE
Protocol: as §1
as §2, with “chip. Except for the negative control mCh, calculated KD values for FGFR4 binding were in the nano- and picomolar range (FIG. 3; Table 2). Affinity parameters could not be fitted with a 1:1 binding model and best fits were obtained with the heterogeneous ligand model of the BIAevaluation software resulting in two KD values for each candidate.” for “chip.”

Row | Binder | binding result
5 | B1 | no binding
6 | B2 | no binding
7 | B3 | no binding
8 | B4 | no binding

molecular target: T3, FGFR1 expressed on Rh4-FR4ko cells (UniProt P11362 22-822, limits assumed); assay: flow cytometry on Rh4-FR4ko cells, which express FGFR1 and FGFR2
T3 construct: whole, on cells; also called FGFR1 on Rh4 cells
Protocol: The cells were incubated for 1 h with nanobodies at 10 μM (A8, B1, B5, F8, mCh) followed by stimulation of FGFR4 with 50 nM FGF19 for 10 min. Control cells (C) were either not stimulated or stimulated with FGF19 in absence of the nanobodies. The cell lysates were analysed by western blot with anti phospho ERK1/2 antibody. Total Erk1/2 levels are shown as loading control.
Binding validation of selected phages, recombinant nanobodies and decorated liposomes was performed on Rh4-FR4 wt and Rh4-FR4ko cells. Specificity of selected phage clones binding to FGFR4 was determined by flow cytometry in 96-well plates (Becton Dickinson). Cell surface staining of Rh4-FR4 wt or Rh4-FR4ko cells was performed on ice in PBS supplemented with 1% FBS. 80 μL phages+20 μL PBS/1% milk were incubated on 1×10⁵ cells for 1 h on ice. […] Samples were analyzed after two washes by flow cytometry on a MACSQuant® cytometer (Miltenyi) and results were analyzed with FlowJo™ software (BD Biosciences, France). Phages displaying anti-mCherry nanobodies were used as negative control²⁴ and as positive control we used an anti-FGFR4 antibody (BT53, kindly provided by J. Khan lab, NCI, Bethesda, MD). For binding test of recombinant nanobodies, cells were detached with Accutase® (Stemcell Technologies) and washed with PBS. All following steps were performed on ice: 4×10⁵ cells were incubated with nanobody concentrations of 30 μg/ml for 1 h, washed once with PBS and incubated for an additional 30 min with anti His-tag FITC labeled antibody (LS-C57341, LSBioscience, diluted 1:10). The cells were washed once more with PBS and analyzed. Targeting liposomes were added at 0.5 mM final lipid concentration to cells in 96-well plates and incubated for 2 h at 37° C. and 5% CO₂. The cells were washed twice with PBS and detached with Accutase®.
Validation of the binding of recombinant nanobodies to cell-surface expressed FGFR4 was performed with Rh4-FR4 wt and Rh4-FR4ko cells by flow cytometry.

Row | Binder | binding result
9 | B1 | no binding (tested: 30 µg/ml)
10 | B2 | no binding (tested: 30 µg/ml)
11 | B3 | no binding (tested: 30 µg/ml)
12 | B4 | no binding (tested: 30 µg/ml)

Source: US20260191907A1 (INSTITUT CURIE, published 2026)
